For one substance, C2C12 skeletal muscle cell attachment to a βIG-H3 substratum after function-perturbing anti-α7 antibody (% reduction of attachment) results are on record in patent publication US20030211141A1.

For this assay, the target named is integrin α7β1 on C2C12 murine myoblasts (murine) (UniProt Q61738). The assay can be described thus: cell-based or functional assay.

Take “human recombinant βIG-H3 (Transforming Growth Factor-β Induced Gene-Human Clone 3 protein), expressed in CHO cells and purified (from UniProt Q15582 1-683) (ligand)”: the C2C12 skeletal muscle cell attachment to a βIG-H3 substratum after function-perturbing anti-α7 antibody (% reduction of attachment) was found to be 80.
